Data published in FireProtDB (doi:10.1016/j.bpc.2008.09.020).

Settings: Pseudomonas aeruginosa (strain ATCC 15692 / DSM 22644 / CIP 104116 / JCM 14847 / LMG 12228 / 1C / PRS 101 / PAO1), 25 °C, GdnHCl, CD, Sodium acetate 20 mM, whole UniProt chain shown

B1: Cytochrome c-551 wild type, P00099 (protein)
chain: MKPYALLSLLATGTLLAQGAWAEDPEVLFKNKGCVACHAIDTKMVGPAYKDVAAKFAGQAGAEAELAQRIKNGSQGVWGPIPMPPNAVSDDEAQTLAKWVLSQK
pH 3.6
  denaturant m value: 2.88 kcal/mol/M
  denaturant midpoint (higher = more stable): 1.44 M
  unfolding free energy: 4.14 kcal/mol
pH 5
  denaturant m value: 2.64 kcal/mol/M
  denaturant midpoint (higher = more stable): 2.06 M
  unfolding free energy: 5.44 kcal/mol
